# Test results reported in patent US20260242478A1 (published 2026).
# Where no end group is shown, it is not given here.
# Columns and labels:
# [1] = target: T1, Anti-PSMA Fab (SEQ ID NOs: 19, 20); assay: phage ELISA; clonal phage on captured PSMA Fab pre-incubated with PSMA antigen as competitor, anti-M13 HRP detection
# T1 construct: also called 006 PSMA Fab
# Method: (§1) Clonal phage were harvested as crude supernatants and screened via standard ELISAs. […] Prior to the addition of clonal phage. wells were incubated with blocking buffer and PSMA antigen or blocking buffer alone. Without washing or aspirating, clonal phage supernatants were then added to the wells and incubated for a short time. Wells were then washed followed by detection of bound phage using a horse radish conjugated anti-M13 antibody.
# [2] = target: T1, Anti-PSMA Fab (SEQ ID NOs: 19, 20); assay: phage ELISA; clonal phage supernatant on biotinylated PSMA Fab captured on neutravidin plates, anti-M13 HRP detection
# Method: as §1
# anti-CD28 Fab [3] = assay: competition ELISA, peptide titrated 0-100 uM against 1 nM anti-CD28 Fab, plate-bound CD28 as competitor
# Target sequence in this assay (VH, as listed by the source, chain 1 of 2): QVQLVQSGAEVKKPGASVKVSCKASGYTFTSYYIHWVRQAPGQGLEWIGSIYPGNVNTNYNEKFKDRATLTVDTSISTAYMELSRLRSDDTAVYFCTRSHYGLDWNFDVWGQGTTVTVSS
# Target sequence in this assay (VL, as listed by the source, chain 2 of 2): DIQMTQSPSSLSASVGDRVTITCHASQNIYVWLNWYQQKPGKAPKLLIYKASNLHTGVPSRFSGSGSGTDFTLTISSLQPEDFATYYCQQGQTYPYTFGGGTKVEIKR
# anti-CD28 Fab [4] = assay: BLI (Octet): biotinylated peptide on streptavidin sensor, anti-CD28 Fab titrated in solution, 1:1 model
# Target sequence in this assay (VH, as listed by the source, chain 1 of 2): as the sequence (VH, as listed by the source, chain 1 of 2) above
# Target sequence in this assay (VL, as listed by the source, chain 2 of 2): as the sequence (VL, as listed by the source, chain 2 of 2) above
Binder,"Phage binding ELISA, Anti-PSMA Fab signal in the presence of PSMA [1]","Phage binding ELISA, Anti-PSMA Fab (SEQ ID NOs: 19, 20) signal [2]",IC50 (anti-CD28 Fab [3]) [nM],also measured
MCQWDKINYWMDCD [Phage-1755],0.049,1.81,–,–
SKLLCVPPWMCYHV [Phage-1744],0.0794,0.806,–,–
HCLWHESSGRVLCF [Phage-1742],0.0678,2.15,–,–
ILPCHWYTSDCPQH (also called Peptide-200) [Phage-1750],0.117,1.63,–,–
QCVWDLTNYWMNCD [Phage-1756],0.057,1.3,–,–
WCWVQDDRRHVVCG [Phage-1751],0.0549,1.19,–,–
YCEGHSSEYIQKCL [Peptide-129],–,–,3180,–
MCQWDELNYWMDCD [Phage-1752],0.0565,1.65,–,–
QCTWNEKTWWMECE [Phage-1754],0.0568,1.35,–,–
DCHWNKATWWMDCE [Phage-1757],0.0828,1.18,–,–
MEYCSFHRFTCVLW [Phage-1743],0.116,1.93,–,–
YCEGHSQENIWKCL [Peptide-124],–,–,4070,–
YCEGHSPEYILKCL [Peptide-117],–,–,1530,–
YCEGHRPEYILKCL [Peptide-118],–,–,13300,–
"YCEGHLPEYIEKCL (cysteine pairing not given here; also: biotinylated, site not given here)",–,–,–,Kd (anti-CD28 Fab [4]): 926 nM; koff (anti-CD28 Fab [4]): 0.0239 s⁻¹; kon (anti-CD28 Fab [4]): 25800 M⁻¹ s⁻¹; t1/2 (anti-CD28 Fab [4]): 30 s
QCVWDNFNYWMDCD [Phage-1753],0.0667,0.772,–,–
YCWVDADMWLIFRC [Phage-1749],0.275,1.01,–,–
QLPCHYWGEWCPQA [Phage-1745],0.0537,1.39,–,–

Binder,"Phage binding ELISA, Anti-PSMA Fab signal in the presence of PSMA [1]","Phage binding ELISA, Anti-PSMA Fab (SEQ ID NOs: 19, 20) signal [2]",IC50 (anti-CD28 Fab [3]) [nM],also measured
QCVWDRGTWWMACD [Phage-1759],0.052,0.414,–,–
YCEGHSQEYLWKCL [Peptide-128],–,–,9660,–
YCWSHSPPFIKKCY [Peptide-131],–,–,> 100000,–
HCSGHHWLQVWKCF [Peptide-130],–,–,> 100000,–
LTRCVPDWMCYRAV [Phage-1748],0.0708,1.17,–,–
FWECYSSFCRFVEG [Phage-1746],0.139,1.46,–,–
YCEGHLPEYLGKCL [Peptide-125],–,–,830,–
YCEGHLPEYLAKCL [Peptide-127],–,–,300,–
PLCGTEEVWWECRL [Phage-1747],0.0826,1.78,–,–
MCFVTGWGVPDDCN [Phage-1758],0.0694,0.638,–,–
YCEGHLPEYIEKCL,–,–,360,–
YCEGHAPEYIGKCL [Peptide-136],–,–,4120,–
YCEGHAPEYIRKCL [Peptide-122],–,–,2220,–
YCEGHLPEYIWKCL [Peptide-135],–,–,630,–
YCEGHAPEYIAKCL [Peptide-121],–,–,480,–
YCEGHAPEYIWKCL [Peptide-123],–,–,1320,–
YCEGHLPEYLEKCV [Peptide-133],–,–,2900,–
YCEGHEGIYFWKCL [Peptide-119],–,–,77700,–
